According to PMC7072329 (Biomolecules, 2020):
Where no end group is shown, it is not given here. [ ]: non-standard residue; d: D form. The star is where a group is joined. Kyn = Nc1ccccc1C(=O)C[C@H](N)C(=O)O; NMeF = CN[C@@H](Cc1ccccc1)C(=O)O; NHCH2CH2OH = OCCN*

Experiments:
κ-opioid receptor = target: T1, κ-opioid receptor (guinea pig (endogenous in guinea pig …, UniProt P41144 1-380)); experiment: radioligand binding; displacement of [^3H]HS665 from guinea pig brain membrane homogenate by unlabelled ligand (10^-10 to 10^-5 M); 50 mM Tris-HCl pH 7.4, 25 °C, 30 min; non-specific binding with 10 μM HS665; IC50 converted into Ki by Cheng-Prusoff; details: one partner purified
T1 construct: κ-opioid receptor, guinea pig, endogenous in brain membrane homogenate; defined by displacement of [^3H]HS665; In membranes, not on intact cells; also called KOR; k-opioid receptor; source: endogenous, guinea pig brain membrane homogenate
T1 sequence (P41144 whole entry): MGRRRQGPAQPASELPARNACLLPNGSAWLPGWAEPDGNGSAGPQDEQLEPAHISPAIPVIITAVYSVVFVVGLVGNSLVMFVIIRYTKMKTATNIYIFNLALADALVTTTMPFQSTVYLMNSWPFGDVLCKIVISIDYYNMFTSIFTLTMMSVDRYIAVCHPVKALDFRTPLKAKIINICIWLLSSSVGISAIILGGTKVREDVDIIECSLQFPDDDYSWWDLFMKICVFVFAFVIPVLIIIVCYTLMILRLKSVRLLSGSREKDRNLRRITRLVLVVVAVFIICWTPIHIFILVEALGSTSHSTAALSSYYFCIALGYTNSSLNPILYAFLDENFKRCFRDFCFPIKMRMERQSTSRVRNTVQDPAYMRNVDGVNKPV

μ-opioid receptor [1] = target: T2, μ-opioid receptor (rat (endogenous in rat brain), UniProt P33535 1-398); experiment: cell-based or functional assay
T2 sequence (P33535 whole entry): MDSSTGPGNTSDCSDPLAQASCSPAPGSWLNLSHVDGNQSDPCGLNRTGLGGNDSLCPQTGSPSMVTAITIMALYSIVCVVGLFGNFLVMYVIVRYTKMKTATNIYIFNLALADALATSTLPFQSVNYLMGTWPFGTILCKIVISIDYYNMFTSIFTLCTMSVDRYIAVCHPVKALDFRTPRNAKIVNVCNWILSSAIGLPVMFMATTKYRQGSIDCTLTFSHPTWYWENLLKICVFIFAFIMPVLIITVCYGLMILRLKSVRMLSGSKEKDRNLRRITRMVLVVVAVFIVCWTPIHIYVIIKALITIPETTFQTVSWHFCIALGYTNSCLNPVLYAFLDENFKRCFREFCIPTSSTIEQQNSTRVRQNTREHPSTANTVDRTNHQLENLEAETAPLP

μ-opioid receptor [2] = target: T2, μ-opioid receptor; experiment: cell-based or functional assay; remark: listed apart in the source
μ-opioid receptor [3] = target: T2, μ-opioid receptor; experiment: radioligand binding; displacement of [^3H]DAMGO from rat brain membrane homogenate by unlabelled ligand (10^-10 to 10^-5 M); 50 mM Tris-HCl pH 7.4, 35 °C, 45 min; non-specific binding with 10 μM naloxone; IC50 converted into Ki by Cheng-Prusoff, one site competition fit; details: one partner purified
δ-opioid receptor = target: T3, δ-opioid receptor (rat (endogenous in rat brain), UniProt P33533 1-372); experiment: radioligand binding; details: one partner purified
T3 construct: δ-opioid receptor, rat (Wistar), endogenous in brain membrane homogenate; defined by displacement of [^3H]Ile^5,6Delt II; In membranes, not on intact cells; also called DOR; source: endogenous, rat brain membrane homogenate
T3 sequence (P33533 whole entry, stated change not applied): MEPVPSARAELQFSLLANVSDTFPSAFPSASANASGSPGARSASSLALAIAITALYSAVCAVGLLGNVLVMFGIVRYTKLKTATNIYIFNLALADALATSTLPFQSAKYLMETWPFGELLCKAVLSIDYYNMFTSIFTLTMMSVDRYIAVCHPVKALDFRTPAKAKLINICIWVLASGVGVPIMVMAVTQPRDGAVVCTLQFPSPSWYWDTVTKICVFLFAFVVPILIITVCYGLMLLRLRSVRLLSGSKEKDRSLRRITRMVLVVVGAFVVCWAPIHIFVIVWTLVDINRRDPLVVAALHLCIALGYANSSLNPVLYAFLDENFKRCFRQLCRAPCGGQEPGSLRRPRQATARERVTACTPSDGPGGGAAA

Row | Binder | Ki (κ-opioid receptor) [nM] | Log EC50 of [^35S]GTPγS binding (G-protein activation), rat brain membrane homogenates (μ-opioid receptor [1]) | logEC50 of [^35S]GTPγS binding as told in the conclusions (differs from Table 2) (μ-opioid receptor [2]) | Ki (μ-opioid receptor [3]) [nM] | Ki (δ-opioid receptor) [nM]
1 | Y[dA]GF[Kyn]-NH2 [Peptide K6] | 128 | -5.98 | -5.6 | 1.84 | 32.5
2 | YP[Kyn]F-NH2 [Peptide K2] |  |  |  | 1.39 | 
3 | YPF[Kyn]-NH2 (N-terminus assumed; SMILES NC(=O)[C@H](CC(=O)c1ccccc1N)NC(=O)[C@H](Cc1ccccc1)NC(=O)[C@@H]1CCCN1C(=O)[C@@H](N)Cc1ccc(O)cc1) [Peptide K3] | > 10000 |  |  | 197 | 159
4 | Y[dA]GF[Kyn]-OMe [Peptide K4] | > 10000 |  |  | 2.29 | 31.2
5 | Y[dA]GF[Kyn]-OH [Peptide K5] | > 10000 |  |  | 9.11 | 94.4
6 | Y[dA]G[NMeF][NHCH2CH2OH]-{kynurenic acid (ester on OH)} (the order of couplings in Scheme 1 (ethanolamine-kyna ester, Boc-N-Me-Phe, Boc-Gly, Boc-DAla, Boc-Tyr) agrees; the drawn structure is in Scheme 1; also called kyna-containing peptide; source: synthetic peptide (solution phase synthesis, RP-HPLC purified, TFA salt)) [Peptide KA1] | > 10000 |  |  |  | 555
